Data taken from PMC3001066 (Nucleic Acids Research, 2010).

Molecular target: full-length hAPE1 (human apurinic/apyrimidinic endonuclease 1), recombinant, as immobilised for SPR (human, UniProt P27695 1-318)
Assay: SPR

Sequence of full-length hAPE1 (human apurinic/apyrimidinic endonuclease 1), recombinant, as immobilised for SPR (P27695 whole entry): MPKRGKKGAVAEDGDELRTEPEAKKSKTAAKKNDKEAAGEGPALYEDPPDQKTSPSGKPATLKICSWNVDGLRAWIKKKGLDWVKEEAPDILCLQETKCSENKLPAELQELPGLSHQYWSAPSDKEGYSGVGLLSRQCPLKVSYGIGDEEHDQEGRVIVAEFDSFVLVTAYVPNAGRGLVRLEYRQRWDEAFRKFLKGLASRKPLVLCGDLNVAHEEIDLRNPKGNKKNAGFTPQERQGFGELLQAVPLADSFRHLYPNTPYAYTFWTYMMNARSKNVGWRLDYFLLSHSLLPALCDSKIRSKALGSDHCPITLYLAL

- Kd: 668 ± 5 nM
B1: N-terminal domain of NPM1 (residues 1-117) (domain or fragment, UniProt P06748 1-117, looked up)
chain: MEDSMDMDMSPLRPQNYLFGCELKADKDYHFKVDNDENEHQLSLRTVSLGAGAKDELHIVEAEAMNYEGSPIKVTLATLKMSVQPTVSLGGFEITPPVVLRLKCGSGPVHISGQHLV
